{
  "source": "paper PMC7287642",
  "about": "“SPR Biosensor Based on Polymer Multi-Mode Optical Waveguide and Nanoparticle Signal Enhancement”",
  "binders": {"B1": {"name": "Apt1 (anti-CRP aptamer) (ssDNA)", "DNA": "GGCAGGAAGACAAACACGATGGGGGGGTATGATTTGATGTGGTTGTTGCATGATCGTGGTTGTGGTGCTGT", "modifications": "5'-biotin"}},
  "biological_target": "T1, C-reactive protein (CRP) (human, UniProt P02741 19-224)",
  "T1 sequence": "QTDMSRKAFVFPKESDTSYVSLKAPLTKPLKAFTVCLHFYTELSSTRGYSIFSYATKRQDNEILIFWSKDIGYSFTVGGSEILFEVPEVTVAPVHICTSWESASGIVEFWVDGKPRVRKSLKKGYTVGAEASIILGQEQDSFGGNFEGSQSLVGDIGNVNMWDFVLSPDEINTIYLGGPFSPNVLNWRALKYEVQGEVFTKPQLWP",
  "assay": "SPR (AuNP-enhanced aptamer sandwich); Apt1 on sensor and on 17 nm AuNPs; 2 mM Ca2+, 10 mM Mg2+; response 0.118 nm/nM; no shift detected with CRP alone before AuNPs; 10 mM Tris, 50 mM NaCl, 2 mM CaCl2, 10 mM MgCl2, 5 mM KCl, pH 7.5; CRP 30 min, AuNPs 10 min; readout in H2O; binding temperature not stated",
  "settings": "protein: native; chain copies: 5",
  "data": [
    {"binder": "B1", "values": [
      {"measurement": "binding result", "result": "binds"}
    ]}
  ]
}
